According to patent publication US11542488B2, “Sortase synthesized chimeric antigen receptors” (Novartis AG, priority 2014, dated 2023):

Experiments:
CD19 = target: T1, CD19 (Homo sapiens, UniProt P15391); assay: Flow cytometry labeling of K562 cells with scFV19 conjugated to TAMRA; format: binding
T1 construct: expressed in transfected cells; host or cells: K562
T1 sequence (P15391 20-556): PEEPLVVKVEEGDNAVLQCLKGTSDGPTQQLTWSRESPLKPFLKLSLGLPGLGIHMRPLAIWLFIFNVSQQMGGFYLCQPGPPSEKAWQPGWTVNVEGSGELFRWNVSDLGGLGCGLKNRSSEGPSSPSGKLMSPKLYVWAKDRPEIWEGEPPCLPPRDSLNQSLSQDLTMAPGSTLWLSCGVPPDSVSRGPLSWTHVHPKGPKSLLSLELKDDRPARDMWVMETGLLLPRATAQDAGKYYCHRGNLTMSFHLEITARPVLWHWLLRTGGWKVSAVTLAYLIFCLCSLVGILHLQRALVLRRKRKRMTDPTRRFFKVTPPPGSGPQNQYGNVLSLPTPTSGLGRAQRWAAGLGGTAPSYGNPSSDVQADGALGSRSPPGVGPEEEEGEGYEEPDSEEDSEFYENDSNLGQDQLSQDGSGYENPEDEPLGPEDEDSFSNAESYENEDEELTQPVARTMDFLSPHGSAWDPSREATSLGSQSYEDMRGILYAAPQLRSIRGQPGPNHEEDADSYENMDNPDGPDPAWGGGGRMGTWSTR
From the text: As a control, scFV19 subjected to the same reaction conditions to label the scFV with TAMRA, but omitting sortase (scFV19.LPETG+TAMRA_not conjugated (SEQ ID NO: 112)) was used. Flow cytometry analysis comparing cell labeling is shown.
To determine whether the presence of the sortase-recognition motif interferes with the ability of the scFV19 to recognize CD19, the scFV19.LPETGG.His8 (“LPETGG” and “His8” disclosed as SEQ ID NOS 21 and 111, respectively) was labeled with the G3K(TAMRA) peptide (SEQ ID NO:23) using the mutant sortase A as described in Example 1. […] Upon reaction, each of the preparations were filtered through a desalting column to remove unreacted G3K(TAMRA) peptide (SEQ ID NO: 23). Different concentrations of the scFV19.LPETG3K(TAMRA) conjugate (“LPETG3K” disclosed as SEQ ID NO: 250) and unconjugated control were then used to label untransduced K562 cells or K562 overexpressing CD19. […] Thus, the results presented herein confirm that the scFV19.LPETGG.His8 substrate (“LPETGG” and “His8” disclosed as SEQ ID NOS 21 and 111, respectively) for sortase is functional and that the sortase labeling strategy can be used to create new tools for FACS staining.

[1] = test system: scFV directed to CD19 harboring a LPXTG sortase-recognition motif (scFV19); assay: Sortase-mediated labeling of scFV19 with GGGK(TAMRA) peptide, reducing SDS-PAGE and fluorescent scanning; format: biochemical; conditions: for calcium requirement for labeling of scFV19 with TAMRA peptide: absence or presence of 10 mM calcium
From the text: Characterization of the enzyme was initially done in vitro using purified proteins. As the reaction substrate, a scFV directed to CD19 (scFV19) comprising a sortase A recognition motif (LPETGG, SEQ ID NO: 21) and a His8 (SEQ ID NO: 111) purification handle at the C-terminus (also referred to herein as scFv19.LPETGG.His8 (“LPETGG” and “His8” disclosed as SEQ ID NOS 21 and 111, respectively)) was cloned, expressed, and purified. This is the same scFV19 that was used in subsequent examples to test site-specific attachment to live cells using sortase:
As a nucleophile for these test reactions fluorescently labeled peptide: GGGK(TAMRA) (KRUEGANA-001-EXP022) (SEQ ID NO:23) was synthesized and purified. The fluorophore moiety allowed for convenient monitoring of the reaction by SDS-PAGE followed by fluorescent scanning.
The activities of mutant and wild-type (SrtA aureus_His6SrtA26-206 (“His6” disclosed as SEQ ID NO: 110)) sortases were compared side-by-side in the absence or presence of 10 mM calcium in 50 mM Tris-Cl, pH 7.4, 150 mM NaCl buffer, using final concentrations of 40 μM sortase, 20 μM scFV.LPETG.His8 (“LPETG” and “His8” disclosed as SEQ ID NOS 112 and 111, respectively), and 1 mM GGGK(TAMRA) (SEQ ID NO:23). The reactions were incubated at 37° for different periods of time (as indicated in FIG. 2), and analyzed by reducing SDS-PAGE followed by fluorescent scanning (using a ChemiDoc gel imaging system from BioRad) and coomassie staining.
The activity of mutant sortase A was active in culture media (RMPI supplemented with 1% FBS) was determined using the same reaction conditions as in Example 2. The presence of the fluorescent bands indicates the successful coupling of scFv19 to the TAMRA-labeled peptide in the presence of cell culture media. […] As in Example 2, the reaction was complete upon 45′ incubation at 37° C. (FIG. 3). […]

[2] = 40 μM sortase, 20 μM scFV, 1 mM GGGK(TAMRA), 37°

B1: scFV19.LPETG3K(TAMRA) conjugate (conjugate)
scFv: EIVMTQSPATLSLSPGERATLSCRASQDISKYLNWYQQKPGQAPRLLIYHTSRLHSGIPARFSGSGSGTDYTLTISSLQPEDFAVYFCQQGNTLPYTFGQGTKLEIKGGGGSGGGGSGGGGSQVQLQESGPGLVKPSETLSLTCTVSGVSLPDYGVSWIRQPPGKGLEWIGVIWGSETTYYSSSLKSRVTISKDNSKNQVSLKLSSVTAADTAVYYCAKHYYYGGSYAMDYWGQGTLVTVSSLPETGGGK
In the case of B1, the “cell labeling by flow cytometry” value (CD19; untransduced K562 cells or K562 overexpressing CD19, 30 min at 4° C., control reaction without sortase) is reported as “cell labeling was observed only with the conjugate and only on K562 cells expressing CD19”.

B2: mutant sortase A: S. aureus Sortase A mutant lacking the N-terminal 59 amino acids, calcium independent and faster (SEQ ID NO: 4) (protein)
chain: MQAKPQIPKDKSKVAGYIEIPDADIKEPVYPGPATREQLNRGVSFAKENQSLDDQNISIAGHTFIDRPNYQFTNLKAAKKGSMVYFKVGNETRKYKMTSIRNVKPTAVEVLDEQKGKDKQLTLITCDDYNEETGVWETRKIFVATEVKLEHHHHHH
For B2, the “incubation time at which fluorescence was demonstrated” value [1, 2] was ≤ 15 min, the “time to same labeling proportion with three-fold higher enzyme concentration” value ([1]; 120 μM versus 40 μM sortase) was “half of the time” and the “incubation time for complete labeling of scFV19 with TAMRA peptide” value ([1]; 50 mM Tris-Cl, pH 7.4, 150 mM NaCl buffer, 37° C.) was 45 ′. For the same molecule, the “reaction speed compared with wild-type sortase” value ([1]; 37°) was “faster”, the “specificity: serum proteins labeled with fluorophore” value ([1]; RPMI + 1% FBS) was “no proteins from the serum” and the “activity in culture media” value ([1]; RPMI supplemented with 1% FBS) was “active”. For the same molecule, the “calcium requirement for labeling of scFV19 with TAMRA peptide” value [1, 2] was “regardless of whether calcium was present”, the “fluorescence compared to reactions containing wild-type sortase” value ([1]; all three timepoints) was “Increased fluorescence” and the “incubation time for complete reaction” value ([1]; culture media (RPMI + 1% FBS), 37° C.) was 45 ′. The “labeling differences between reactions in buffer or in culture media” value ([1]; reaction kinetics and fluorescence intensity) was “No major labeling differences”.

B3: scFV19.LPETGG.His8: scFV directed to CD19 comprising a sortase A recognition motif (LPETGG) and a His8 handle at the C-terminus (SEQ ID NO: 22) (protein)
scFv: METDTLLLWVLLLWVPGSTGEIVMTQSPATLSLSPGERATLSCRASQDISKYLNWYQQKPGQAPRLLIYHTSRLHSGIPARFSGSGSGTDYTLTISSLQPEDFAVYFCQQGNTLPYTFGQGTKLEIKGGGGSGGGGSGGGGSQVQLQESGPGLVKPSETLSLTCTVSGVSLPDYGVSWIRQPPGKGLEWIGVIWGSETTYYSSSLKSRVTISKDNSKNQVSLKLSSVTAADTAVYYCAKHYYYGGSYAMDYWGQGTLVTVSSLPETGGLDVLFEGPHHHHHHHH
modifications: C-terminal LPETGG sortase motif and His8 tag
With B3 the “functionality of scFV19 carrying the sortase-recognition motif (recognition of CD19)” value (CD19; K562 cells expressing CD19) was “functional”.

B4: wild-type sortase: wild-type S. aureus sortase A (His6SrtA26-206) (protein, UniProt Q2FV99 26-206, looked up, fragment)
chain: KPHIDNYLHDKDKDEKIEQYDKNVKEQASKDKKQQAKPQIPKDKSKVAGYIEIPDADIKEPVYPGPATPEQLNRGVSFAEENESLDDQNISIAGHTFIDRPNYQFTNLKAAKKGSMVYFKVGNETRKYKMTSIRDVKPTDVGVLDEQKGKDKQLTLITCDDYNEKTGVWEKRKIFVATEVK
modifications: His6 tag
In the case of B4, the “fluorescence at 15 minutes of incubation” value [1, 2] is reported as “no fluorescence was detected” and the “calcium requirement for labeling of scFV19 with TAMRA peptide” value [1, 2] is reported as “essential”.
